Assay results: the Human Domainome abundance scans (Beltran et al. 2025)

B1: CD2-associated protein, residues 1 to 59; numbered along this chain, Q9Y5K6 (parent)
chain: MVDYIVEYDYDAVHDDELTIRVGEIIRNVKKLQEEGWLEGELNGRRGMFPDNFVKEIKR

Variants of: B1
Assay: abundance fitness (aPCA) (normalised: wild type 0, dead -1); higher = more abundant; growth selection in yeast, the domain comes from the species named
Conditions: Homo sapiens

Abundance fitness, by site and new letter:
I25: S -0.541, K -0.043, G -0.718, Y -0.294, M -0.28, A -0.667, T -0.064, E -0.516, H -0.146, P -0.845, V -0.088, W -0.519, Q -0.338, R -0.079, C -0.392
E17: M -0.534, V -0.747, G -0.34, A -0.628, L -0.882, Q 0.146, C -0.407, Y -0.736, F -0.466, T -0.461, N -0.421, R -0.567, D -0.13
E24: F -0.338, N -0.412, V -0.94, R -0.687, M -0.387, C -0.625, D 0.321, G -0.341, T -0.449, Q -0.263, W -0.764
R21: K -0.28, V -0.755, H -0.161, T -0.593, L -0.358, Q -0.414, A -0.826, Y -1, P -0.793, M -0.713, N -0.827, C -0.284, S -0.433
D16: Q -0.12, V -0.088, Y 0.03, W -0.08, S -0.036, N 0.001, P -0.434, T 0.005
G23: I -0.739, C -0.831, T -0.755, A -0.911, V -0.844, K -0.383, Q -0.557, L -1.17, Y -0.522, N -0.581, P -1.04, R -0.856, W -0.955, S -0.651, M -0.918
N28: W -0.892, C -0.215, P -0.909, K -0.262, S -0.176, V -0.927, T -0.615, L -0.734, G -0.025, F -0.516, E -0.185, H -0.206, Q -0.15, A -0.387, D 0.04
R27: D -0.838, Y -0.291, T -0.013, K -0.283, Q -0.147, E -0.081, S -0.064, M -0.133, L -0.208, C -0.038, F -0.195, V -0.096, G -0.148, N -0.173, H 0.059, A -0.228, I -0.155
V22: R -0.082, L -0.438, G -0.02, A 0.16, T -0.067, W -0.703, Y -0.301, I -0.273, E 0.115, C -0.304, H -0.201, M -0.52, F -0.17, S -0.09
T19: Q -0.498, C -0.384, F -0.841, N -0.224, Y -0.846, I -0.753, D -0.36, P -0.685, K -0.464, H -0.399, M -0.713, W -0.929, R -0.66, A -0.756, G -0.792, S -0.033, L -0.682
L18: A -0.683, C -0.661, K -0.737, Y -0.904, S -0.651, V -0.499, R -0.504, F -0.846, M -0.244
I20: N -0.792, S -0.743, M -0.019, P -0.762, D -0.933, A -0.546, L -0.014, C -0.292, V -0.225, W -0.736, F -0.373
I26: V -0.177, A -0.636, N -0.988, L -0.107, S -0.79, C -0.517, G -0.926, W -0.743, R -0.894
